According to patent US20240209334A1, “SMALL-MOLECULE-ACTIVATED GLYCAN MODIFYING ENZYMES AND USES THEREOF” (President and Fellows of Harvard College, priority 2022, published 2024):

Legend:
Nup62 = test: Spatial deglycosylation of cytoplasmic Nup62 by OGA-intein(C181) variants in HEK293T cells; assay type: cell-based; conditions: cytoplasmic Nup62 co-expressed
Experimental: (§1) Next, it was assessed whether these OGA-intein(C181) variants enable selective spatial deglycosylation in live cells. As O-GlcNAc affects the subcellular localization of many proteins (37), Nup62 was used as a model cytoplasmic substrate, which was previously primarily localized in the cytoplasm when transiently overexpressed in HEK293T cells independent of the O-GlcNAcylation state (13) (FIGS. 11A, 11B). Nup62 was co-expressed with three OGA-intein(C181) variants (C181-WT, C181-NLS, and C181-NES) in HEK293T cells, and Nup62 was enriched for O-GlcNAc measurement. […] Next, Nup62 was localized to the nucleus by attachment to an NLS tag (Nup62-NLS), and a similar coexpression and 4-HT-triggered activation was performed with OGA-intein(C181) variants. […] The fluorescent intensity of OGA-intein variants also show a strong correlation to the localization of Nup62, indicating the desired subcellular distribution (FIGS. 11A-C).
(§2) Immunoprecipitation and Immunoblot assays. […]
(§3) For immunoblotting analysis, proteins were transferred to a nitrocellulose membrane using an iBlot system (Invitrogen). […] Immunoblot images were captured using Azure Imager C600 and analyzed with Fiji ImageJ for converting all IR fluorescence western blot images to grayscale images.

Nup62-NLS = test: Spatial deglycosylation of nuclear Nup62-NLS by OGA-intein(C181) variants in HEK293T cells; assay type: cell-based; conditions: nuclear Nup62-NLS co-expressed
Experimental: as §1, §2, §3

[1] = test system: global O-GlcNAc level in MCF-7 cells; test: Immunoblot of global O-GlcNAc level and splicing in MCF-7 stable cell lines; assay type: cell-based, human; conditions: MCF-7 cells stably expressing the variant
Text: In addition to serving as an activator for intein splicing, 4-HT is also known as the active metabolite of tamoxifen, an FDA-approved drug for treating breast cancer patients. Breast cancer cells also have elevated OGT expression (39) and decreased levels of OGA (40, 41), resulting in elevated O-GlcNAcylation in the proteome. OGT is usually required for tumor growth and metastasis (39), and low OGA expression is correlated with poor survival in breast cancer patients (FIG. 13). The ER positive breast cancer-derived MCF-7 cell line is sensitive to tamoxifen and 4-HT, resulting in suppression of cell proliferation, yet drug resistance occurs after long-term treatment (42). Previous studies also show evidence that upregulation of O-GlcNAcylation protects MCF-7 cells from tamoxifen-induced cell death (43). To determine if reduction of O-GlcNAc sensitized MCF-7 cells to 4-HT treatment, it was assessed whether 4-HT induced inhibition of breast cancer cell proliferation and OGA-intein activation worked synergistically to accelerate cell death (FIG. 5A). […] Next, these two cell lines were treated with 4-HT at increasing concentrations, and cell viability was measured after 48 hours. […] Given that 4-HT promoted MCF-7 cell death through apoptosis (43), the apoptosis of these cells under 4-HT treatment was further analyzed through flow cytometry analyses following Annexin V and DAPI staining. […]

B1: C181-NES: OGA-intein(C181) appended to a nuclear-export sequence (protein)
chain: MEQKLISEEDLAIAMVQKESQATLEERESELSSNPAASAGASLEPPAAPAPGEDNPAGAGGAAVAGAAGGARRFLCGVVEGFYGRPWVMEQRKELFRRLQKWELNTYLYAPKDDYKHRMFWREMYSVEEAEQLMTLISAAREYEIEFIYAISPGLDITFSNPKEVSTLKRKLDQVSQFGCRSFALLFDDIDHNMCLAEGTRIFDPVTGTTHRIEDVVDGRKPIHVVAAAKDGTLLARPVVSWFDQGTRDVIGLRIAGGAIVWATPDHKVLTEYGWRAAGELRKGDRVAGPGGSGNSLALSLTADQMVSALLDAEPPILYSEYDPTSPFSEASMMGLLTNLADRELVHMINWAKRVPGFVDLTLHDQAHLLERAWLEILMIGLVWRSMEHPGKLLFAPNLLLDRNQGKCVEGMVEIFDMLLATSSRFRMMNLQGEEFVCLKSIILLNSGVYTFLSSTLKSLEEKDHIHRALDKITDTLIHLMAKAGLTLQQQHQRLAQLLLILSHIRHMSNKGMEHLYSMKYKNVVPLYDLLLEMLDAHRLHAGGSGASRVQAFADALDDKFLHDMLAEGLRYSVIREVLPTRRARTFDLEVEELHTLVAEGVVVHNCAADKEVFSSFAHAQVSITNEIYQYLGEPETFLFCPTEYCGTFCYPNVSQSPYLRTVGEKLLPGIEVLWTGPKVVSKEIPVESIEEVSKIIKRAPVIWDNIHANDYDQKRLFLGPYKGRSTELIPRLKGVLTNPNCEFEANYVAIHTLATWYKSNMNGVRKDVVMTDSEDSTVSIQIKLENEGSDEDIETDVLYSPQMALKLALTEWLQEFGVPHQYSSRGSGSGSGSGSGSGSGEKPLYTAEPVTLEDLQLLADLFYLPYEHGPKGAQMLREFQWLRANSSVVSVNCKGKDSEKIEEWRSRAAKFEEMCGLVMGMFTRLSNCANRTILYDMYSYVWDIKSIMSMVKSFVQWLGCRSHSSAQFLIGDQEPWAFRGGLAGEFQRLLPIDGANDLFFQPPLALKLAGLDIN
removal of O-GlcNAc from Nup62 after 4-HT-triggered activation (Nup62): removed O-GlcNAc from Nup62

B2: C181-NLS: OGA-intein(C181) appended to a nuclear-localization sequence (protein)
chain: MEQKLISEEDLAIAMVQKESQATLEERESELSSNPAASAGASLEPPAAPAPGEDNPAGAGGAAVAGAAGGARRFLCGVVEGFYGRPWVMEQRKELFRRLQKWELNTYLYAPKDDYKHRMFWREMYSVEEAEQLMTLISAAREYEIEFIYAISPGLDITFSNPKEVSTLKRKLDQVSQFGCRSFALLFDDIDHNMCLAEGTRIFDPVTGTTHRIEDVVDGRKPIHVVAAAKDGTLLARPVVSWFDQGTRDVIGLRIAGGAIVWATPDHKVLTEYGWRAAGELRKGDRVAGPGGSGNSLALSLTADQMVSALLDAEPPILYSEYDPTSPFSEASMMGLLTNLADRELVHMINWAKRVPGFVDLTLHDQAHLLERAWLEILMIGLVWRSMEHPGKLLFAPNLLLDRNQGKCVEGMVEIFDMLLATSSRFRMMNLQGEEFVCLKSIILLNSGVYTFLSSTLKSLEEKDHIHRALDKITDTLIHLMAKAGLTLQQQHQRLAQLLLILSHIRHMSNKGMEHLYSMKYKNVVPLYDLLLEMLDAHRLHAGGSGASRVQAFADALDDKFLHDMLAEGLRYSVIREVLPTRRARTFDLEVEELHTLVAEGVVVHNCAADKEVFSSFAHAQVSITNEIYQYLGEPETFLFCPTEYCGTFCYPNVSQSPYLRTVGEKLLPGIEVLWTGPKVVSKEIPVESIEEVSKIIKRAPVIWDNIHANDYDQKRLFLGPYKGRSTELIPRLKGVLTNPNCEFEANYVAIHTLATWYKSNMNGVRKDVVMTDSEDSTVSIQIKLENEGSDEDIETDVLYSPQMALKLALTEWLQEFGVPHQYSSRGSGSGSGSGSGSGSGEKPLYTAEPVTLEDLQLLADLFYLPYEHGPKGAQMLREFQWLRANSSVVSVNCKGKDSEKIEEWRSRAAKFEEMCGLVMGMFTRLSNCANRTILYDMYSYVWDIKSIMSMVKSFVQWLGCRSHSSAQFLIGDQEPWAFRGGLAGEFQRLLPIDGANDLFFQPPKRPAATKKAGQAKKKK
4-HT-induced deglycosylation of Nup62-NLS (Nup62-NLS): 4-HT-induced deglycosylation

B3: C181_D174N: catalytically dead mutant (D174N) of OGA-intein(C181) (protein)
chain: MEQKLISEEDLAIAMVQKESQATLEERESELSSNPAASAGASLEPPAAPAPGEDNPAGAGGAAVAGAAGGARRFLCGVVEGFYGRPWVMEQRKELFRRLQKWELNTYLYAPKDDYKHRMFWREMYSVEEAEQLMTLISAAREYEIEFIYAISPGLDITFSNPKEVSTLKRKLDQVSQFGCRSFALLFNDIDHNMCLAEGTRIFDPVTGTTHRIEDVVDGRKPIHVVAAAKDGTLLARPVVSWFDQGTRDVIGLRIAGGAIVWATPDHKVLTEYGWRAAGELRKGDRVAGPGGSGNSLALSLTADQMVSALLDAEPPILYSEYDPTSPFSEASMMGLLTNLADRELVHMINWAKRVPGFVDLTLHDQAHLLERAWLEILMIGLVWRSMEHPGKLLFAPNLLLDRNQGKCVEGMVEIFDMLLATSSRFRMMNLQGEEFVCLKSIILLNSGVYTFLSSTLKSLEEKDHIHRALDKITDTLIHLMAKAGLTLQQQHQRLAQLLLILSHIRHMSNKGMEHLYSMKYKNVVPLYDLLLEMLDAHRLHAGGSGASRVQAFADALDDKFLHDMLAEGLRYSVIREVLPTRRARTFDLEVEELHTLVAEGVVVHNCAADKEVFSSFAHAQVSITNEIYQYLGEPETFLFCPTEYCGTFCYPNVSQSPYLRTVGEKLLPGIEVLWTGPKVVSKEIPVESIEEVSKIIKRAPVIWDNIHANDYDQKRLFLGPYKGRSTELIPRLKGVLTNPNCEFEANYVAIHTLATWYKSNMNGVRKDVVMTDSEDSTVSIQIKLENEGSDEDIETDVLYSPQMALKLALTEWLQEFGVPHQYSSRGSGSGSGSGSGSGSGEKPLYTAEPVTLEDLQLLADLFYLPYEHGPKGAQMLREFQWLRANSSVVSVNCKGKDSEKIEEWRSRAAKFEEMCGLVMGMFTRLSNCANRTILYDMYSYVWDIKSIMSMVKSFVQWLGCRSHSSAQFLIGDQEPWAFRGGLAGEFQRLLPIDGANDLFFQPP
global O-GlcNAc level after adding 4-HT [1]: inactive form
